Patent publication US20180335435A1 (METAFORA BIOSYSTEMS, published 2018)

Key:
[1] = target: T1, human CAT1 (cationic amino acid transporter-1, SLC7A1) (human, UniProt P30825 1-629)
[2] = target: T1, human CAT1 (cationic amino acid …); assay: radiolabeled arginine uptake in HEK293T cells expressing BLV.RBD rFc

T1 sequence (P30825 whole entry): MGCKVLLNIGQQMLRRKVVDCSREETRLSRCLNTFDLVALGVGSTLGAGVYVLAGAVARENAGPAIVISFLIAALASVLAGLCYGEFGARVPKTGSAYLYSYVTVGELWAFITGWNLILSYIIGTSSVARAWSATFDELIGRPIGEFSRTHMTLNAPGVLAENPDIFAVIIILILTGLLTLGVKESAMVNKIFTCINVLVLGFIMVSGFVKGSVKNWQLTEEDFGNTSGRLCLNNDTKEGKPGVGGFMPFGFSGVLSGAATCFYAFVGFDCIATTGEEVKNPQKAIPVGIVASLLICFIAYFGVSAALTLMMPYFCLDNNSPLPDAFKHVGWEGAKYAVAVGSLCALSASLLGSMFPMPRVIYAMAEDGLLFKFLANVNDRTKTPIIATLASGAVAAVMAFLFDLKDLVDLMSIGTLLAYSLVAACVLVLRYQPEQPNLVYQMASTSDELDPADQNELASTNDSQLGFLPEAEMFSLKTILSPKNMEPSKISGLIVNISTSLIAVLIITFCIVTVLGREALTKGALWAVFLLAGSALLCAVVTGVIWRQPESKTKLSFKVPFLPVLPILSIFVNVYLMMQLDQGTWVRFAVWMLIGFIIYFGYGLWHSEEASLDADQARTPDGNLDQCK

B1: BLV.RBD-mFc ligand (receptor-binding domain of the bovine leukemia virus envelope glycoprotein tagged in frame with the constant fragment of mouse … (Fc fusion)
chain: WRCSLSLGNQQWMTTYNQEAKFFISIDQILEAHNQSPFCPRSPRYTLDFVNGYPKIYWPPPQGRRRFGARAMVTYDCEPRCPYVGADHFDCPHWDNASQADQGSFYVNHQTLFLHLKQCHGIFTLTWEIWGYDPLITFSLHKIPAPPQGSVDVPRDCGCKPCICTVPEVSSVFIFPPKPKDVLTITLTPKVTCVVVDISKDDPEVQFSWFVDDVEVHTAQTQPREEQFNSTFRSVSELPIMHQDWLNGKEFKCRVNSAAFPAPIEKTISKTKGRPKAPQVYTIPPPKEQMAKDKVSLTCMITDFFPEDITVEWQWNGQPAENYKNTQPIMDTDGSYFVYSKLNVQKSNWEAGNTFTCSVLHEGLHNHHTEKSLSHSPGK
notes: Used as a 1/10 dilution, detected with anti-mouse IgG1-Alexa Fluor 488; also called BLV.RBD ligand; BLV.RBD tagged with mouse Fc (mFc)
- fold increase of binding on CAT1 overexpression against empty vector [1]: 3 fold

B2: BLV.RBD fused to a rabbit Fc (rFc) tag, expressed from pCSI expression vector (Fc fusion)
chain: WRCSLSLGNQQWMTTYNQEAKFFISIDQILEAHNQSPFCPRSPRYTLDFVNGYPKIYWPPPQGRRRFGARAMVTYDCEPRCPYVGADHFDCPHWDNASQADQGSFYVNHQTLFLHLKQCHGIFTLTWEIWGYDPLITFSLHKIPAPPQGSAPSTCSKPTCPPPELLGGPSVFIFPPKPKDTLMISRTPEVTCVVVDVSQDDPEVQFTWYINNEQVRTARPPLREQQFDCTIRVVSTLPIAHQDWLRGKEFKCKVHNKALPAPIEKTISKARGQPLEPKVYTMGPPREELSSRSVSLTCMINGFYPSDISVEWEKNGKAEDNYKTTPAVLDSDGSYFLYSKLSVPTSEWQRGDVFTCSVMHEALHNHYTQKSISRSPGK
notes: also called pCSI BLV.RBD rFc
- binding result [2]: binds
